According to PMC6681466 (Chemsuschem, 2018):
One block for each molecule: values may come before it.

How the values were obtained:
Ls7β-HSDH [1] = assay: NADH formation at […] nm, fit with substrate inhibition; type: biochemical, Levilactobacillus spicheri; details: read-out: UDCA / K m / [mmol L^-1]; 2.0 mM NAD+, 50 mM KPi pH 8.0, 10% methanol, 25 °C
Ls7β-HSDH [2] = assay: as above; type: biochemical, Levilactobacillus spicheri; details: 2.0 mM NAD+, 50 mM KPi pH 8.0, 10% methanol, 25 °C
Cs7β-HSDH [3] = target: T1, Cs7β-HSDH (Clostridium sardiniense, UniProt G9FRD6); assay: NADPH formation at […] nm, fit with substrate inhibition; type: biochemical; details: 2.0 mM NADP+, 50 mM KPi pH 8.0, 10% methanol, 25 °C
T1 sequence (G9FRD6 1-261): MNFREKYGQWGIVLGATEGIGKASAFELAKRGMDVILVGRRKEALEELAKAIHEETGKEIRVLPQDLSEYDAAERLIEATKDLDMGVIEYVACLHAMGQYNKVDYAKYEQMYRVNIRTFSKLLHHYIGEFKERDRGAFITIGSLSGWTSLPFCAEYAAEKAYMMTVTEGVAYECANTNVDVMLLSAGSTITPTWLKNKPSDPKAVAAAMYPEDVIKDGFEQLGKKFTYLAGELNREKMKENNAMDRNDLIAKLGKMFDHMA

Cs7β-HSDH [4] = target: T1, Cs7β-HSDH; assay: as above; type: biochemical; details: 1.0 mM UDCA, 50 mM KPi pH 8.0, 10% methanol, 25 °C
Ls7β-HSDH [5] = assay: NADH consumption at […] nm, Michaelis-Menten; type: biochemical, Levilactobacillus spicheri; details: 0.5 mM NADH, 50 mM KPi pH 8.0, 10% methanol, 25 °C
purified protein [6] = substrate: C[C@H](CCC(=O)O)[C@H]1CC[C@H]2[C@@H]3[C@@H](O)C[C@@H]4C[C@H](O)CC[C@]4(C)[C@H]3CC[C@]12C; assay: purified protein; details: 2.0 mM NADP+, 50 mM KPi pH 8.0, 10% methanol, 25 °C
purified protein [7] = substrate: C[C@H](CCC(=O)O)[C@H]1CC[C@H]2[C@@H]3C(=O)C[C@@H]4C[C@H](O)CC[C@]4(C)[C@H]3C[C@H](O)[C@]12C; assay: purified protein; details: 0.5 mM NADPH, 50 mM KPi pH 8.0, 10% methanol, 25 °C
purified protein [8] = substrate: [H][C@]12CC(=O)[C@@]3([H])[C@]4([H])CC[C@H]([C@H](C)CCC(=O)O)[C@@]4(C)CC[C@]3([H])[C@@]1(C)CC[C@@H](O)C2; assay: purified protein; details: 0.5 mM NADPH, 50 mM KPi pH 8.0, 10% methanol, 25 °C

Molecule: C[C@H](CCC(=O)O)[C@H]1CC[C@H]2[C@@H]3[C@@H](O)C[C@@H]4C[C@H](O)CC[C@]4(C)[C@H]3CC[C@]12C [UDCA]
Km (Ls7β-HSDH [1]): 156 ± 51 µM
UDCA / K i / (Ls7β-HSDH [2]): 0.8 ± 0.3 mmol/L
UDCA / K i / (Cs7β-HSDH [3]): 1.4 ± 0.3 mmol/L

Molecule: C[C@H](CCC(=O)O)[C@H]1CC[C@H]2[C@@H]3C(=O)C[C@@H]4C[C@H](O)CC[C@]4(C)[C@H]3CC[C@]12C [7-oxo-LCA]
Km (Ls7β-HSDH [5]; read-out: 7-oxo-LCA / K m / [mmol L^-1]): 38 ± 14 µM

B1: Cs7β-HSDH (Clostridium sardiniense) (protein)
chain: MNFREKYGQWGIVLGATEGIGKASAFELAKRGMDVILVGRRKEALEELAKAIHEETGKEIRVLPQDLSEYDAAERLIEATKDLDMGVIEYVACLHAMGQYNKVDYAKYEQMYRVNIRTFSKLLHHYIGEFKERDRGAFITIGSLSGWTSLPFCAEYAAEKAYMMTVTEGVAYECANTNVDVMLLSAGSTITPTWLKNKPSDPKAVAAAMYPEDVIKDGFEQLGKKFTYLAGELNREKMKENNAMDRNDLIAKLGKMFDHMA
Km (purified protein [6]): 0.160 ± 0.030 mmol/L
kcat (purified protein [6]): 3.61 ± 0.34 s⁻¹
kcat/Km (purified protein [6]): 22600 M⁻¹ s⁻¹
Km (purified protein [7]): 0.106 ± 0.005 mmol/L
kcat (purified protein [7]): 2.27 ± 0.03 s⁻¹
kcat/Km (purified protein [7]): 21300 M⁻¹ s⁻¹
Km (purified protein [8]): 0.128 ± 0.027 mmol/L
kcat (purified protein [8]): 1.37 s⁻¹
kcat/Km (purified protein [8]): 10700 M⁻¹ s⁻¹

The remaining lines, values ahead:

NADP^+ / K i / (Cs7β-HSDH [4]): 10 ± 3 mmol/L
Molecule: NC(=O)c1ccc[n+]([C@@H]2O[C@H](COP(=O)(O)OP(=O)(O)OC[C@H]3O[C@@H](n4cnc5c(N)ncnc54)[C@H](OP(=O)(O)O)[C@@H]3O)[C@@H](O)[C@H]2O)c1 [NADP^+]

Km (Ls7β-HSDH [5]; read-out: 7-oxo-DCA / K m / [mmol L^-1]): 131 ± 28 µM
Molecule: C[C@H](CCC(=O)O)[C@H]1CC[C@H]2[C@@H]3C(=O)C[C@@H]4C[C@H](O)CC[C@]4(C)[C@H]3C[C@H](O)[C@]12C [7-oxo-DCA]
